Data on 1 protein can be found in FireProtDB (doi:10.1016/s0167-4838(99)00132-6).

For this series the following is noted: Escherichia coli (strain K12), Thermal, DSC, KH2PO4-KOH 10 mM, reversible: no, whole UniProt chain shown.

B1: Glyceraldehyde-3-phosphate dehydrogenase A wild type, P0A9B2 (protein)
chain: MTIKVGINGFGRIGRIVFRAAQKRSDIEIVAINDLLDADYMAYMLKYDSTHGRFDGTVEVKDGHLIVNGKKIRVTAERDPANLKWDEVGVDVVAEATGLFLTDETARKHITAGAKKVVMTGPSKDNTPMFVKGANFDKYAGQDIVSNASCTTNCLAPLAKVINDNFGIIEGLMTTVHATTATQKTVDGPSHKDWRGGRGASQNIIPSSTGAAKAVGKVLPELNGKLTGMAFRVPTPNVSVVDLTVRLEKAATYEQIKAAVKAAAEGEMKGVLGYTEDDVVSTDFNGEVCTSVFDAKAGIALNDNFVKLVSWYDNETGYSNKVLDLIAHISK
For the protein B1, where the note is “pH 6”, the Tm is 75.3 °C and the “unfolding enthalpy (calorimetric)” value worked out at 908 kcal/mol. Besides, under “pH 8”, the melting temperature (Tm) is 72.6 °C and the “unfolding enthalpy (calorimetric)” value is 1080 kcal/mol.
